Measured values from PMC6683420 (BMC Molecular and Cell Biology, 2019).
Residue numbers refer to the chain shown, from its start. Blank lines part the entries; values can stand above or below the binder they belong to.

Assays:
human CD40 [1] = molecular target: T1, human CD40 (human, UniProt P25942); assay: cell-based or functional assay
human CD40 [2] = molecular target: T1, human CD40; assay: cell-based or functional assay; remark: listed apart in the source

T1 sequence (P25942 21-277): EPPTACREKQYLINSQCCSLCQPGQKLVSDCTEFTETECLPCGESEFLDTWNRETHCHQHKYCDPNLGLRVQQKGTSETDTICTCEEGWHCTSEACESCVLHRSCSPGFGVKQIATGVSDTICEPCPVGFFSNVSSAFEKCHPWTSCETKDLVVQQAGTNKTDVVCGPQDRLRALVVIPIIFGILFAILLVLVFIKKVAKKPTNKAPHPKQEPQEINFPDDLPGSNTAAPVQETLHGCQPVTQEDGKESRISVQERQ

EC50 of antagonist activity in the CD40-dependent NF-kB SEAP reporter assay (HEK-293 transfected with human CD40, stimulated with recombinant CD40L); blocks m8 with m7 (human CD40 [1]): 3.7 nM | EC50 of inhibition of CD86 upregulation on primary human B cells stimulated with CD40L-expressing Jurkat cells; blocks m8 with m7 (human CD40 [1]): 0.6 nM | Antagonist: Jurkat/ Reporter assay IC50 nM; blocks m8 with m7 (human CD40 [2]): 3.1 nM
B1: ABBV-323 (ravagalimab), human IgG1/κ anti-CD40 antagonist mAb (antibody, V domains shown)
VH: EVQLVESGGGLVKPGGSLRLSCAASGFTFSDYGMNWVRQAPGKGLEWIAYISSGRGNIYYADTVKGRFTISRDNAKNSLYLQMNSLRAEDTAVYYCARSWGYFDVWGQGTTVTVSS
VL: DIVMTQSPDSLAVSLGERATINCKSSQSLLNRGNQKNYLTWFQQKPGQPPKLLIYWASTRESGVPDRFSGSGSGTDFTLTISSLQAEDVAVYYCQNDYTYPLTFGQGTKLEIK

Agonist: huCD40 reporter assay IC50 (human CD40 [2]): 157 nM
B2: FAB516, anti-CD40 agonist antibody variant of ABBV-323 (antibody, V domains shown)
VH: B1 VH with I48V, A49S, G56S
VL: B1 VL with R32L
